From the nanobody polyreactivity screen of Harvey et al. (2022)

Assay: yeast display, Sf9 membrane polyspecificity reagent, FACS + sequencing; frameworks hold sequencing errors
How it was run: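 Genes from sorted yeast were amplified by colony PCR, read by MiSeq 2 × 250 sequencing and filtered on CDR length. These cells carried a synthetic nanobody library in Saccharomyces cerevisiae BJ5465 and were sorted by FACS into low and high (top ~1%) gates on anti-HA and streptavidin fluorescence. Polyreactivity is labelled according to the gate of origin.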

Row | Sequence | polyreactivity (PSR sort gate)
1 | QVQLVESGGGLVQAGGSLRLSCAASGSIFSHYAMGWYRQAPGKERELVARITWGGGSTYADCVKGRFTISRDNAKNTVYLQMKSLKPEDTAVYYCAAVPVGYDSDWGYYYWGQGTQVTVSS | low polyreactivity
2 | QVQLVESGGGLVQAGGSLRLSCAASGSIFSINAMGWYRQAPGKERELVAAINGSGGNTYYADSVKGRFTISRDNAKNTVYLQMNSLKPEDTAVYYCAAEGYSYWSFDELDYWGQGTQVTVSS | low polyreactivity
3 | QVQLVESGGGLVQAGGSLRLSCAASGSIFSKNARGWYRQAPGKERELVAAISWSGDRTYYADSVKGRFTISRDNAKNTVYLQMNSLKPEDTAVYYCAADYTVKYGYWGQGTQVTVSS | high polyreactivity
4 | QVQLVESGGGLVQAGGSLRLSCAASGSIFSKYAMGWYRQAPGKERELVAAITSSGGSTYYADSVKGRFTISRDNAKNTVYLQMNSLKPEDNAVYYCAAGGRSVRYNYWGQGTQVTVSS | high polyreactivity
5 | QVQLVESGGGLVQAGGSLRLSCAASGSIFSLYAMGWYRQAPGKERELVAAITWTGGSTYYADSVKGRFTISRDNAKNTVYLQMNSLKPEDTAVYYCDARRVVYRYYWYSAYDYWGRGTQVTVSS | high polyreactivity
6 | QVQLVESGGGLVQAGGSLRLSCAASGSIFSNYAMGWYRQAPGKERELVAAITWSGDDTYYADSVKGRFTISRDNAKTTVYLQMNSLKPVDTAVYYCAAEYHGYRYNYYPYSHYFIYESWGQGTQVTVSS | high polyreactivity
7 | QVQLVESGGGLVQAGGSLRLSCAASGSIFSPNARGWYRQAPGKEREVVAGISWSGDGTYYADSVKGRFTISRDYAKNTVYLQMNSLKPEDTAVYYCAARFGRYSHRYYYWGQGTQVTVSS | high polyreactivity
8 | QVQLVESGGGLVQAGGSLRLSCAASGSIFSPNDMGWYRQAPGKERELVAAITSAGSTYYADSVKGRFTISRDNAKNTVYLQMNSLKPDDTAVYYCAATYISVTDYAYFPLWYGYWGQGTQVTVSS | low polyreactivity
9 | QVQLVESGGGLVQAGGSLRLSCAASGSIFSPYAMGWYRQAPGKERELVAAISFRASTTYYADSVKGRFTISRDNAKNTVYLQMNSLKPEDTAVYYCSASALYSWFWGLYDYWGQGTQVTVSS | low polyreactivity
10 | QVQLVESGGGLVQAGGSLRLSCAASGSIFSPYAMGWYRQAPGKERELVAGISKSAGTTFYADSVKGRFTISRDNAKNTVYLQMNSLKPEDTAVYYCAADYYYPAWYLSDYWGQGTQVTVSS | low polyreactivity
11 | QVQLVESGGGLVQAGGSLRLSCAASGSIFSQNAMGWYRQAPGKEREFVAAIRWSAGSTYYADSVKGRFTISRDNAKNTVYLQMNSLKPEDTAVYYCNAALNVSGHYPNDYWGQGTQVTVSS | low polyreactivity
12 | QVQLVESGGGLVQAGGSLRLSCAASGSIFSQNAMGWYRQAPGKERELVAAITSSGGNTYADSVKGRFTISRDNAKNTVYLQMNRLKPEDTAVYYCAAGHLVILNRSEYYYWGQGTQVTVSS | low polyreactivity
13 | QVQLVESGGGLVQAGGSLRLSCAASGSIFSQYAMGWYRQAPGKERELVAAITYGGGSTYYADSVKGRFTISRDNAKNTVYLQMNSLKPEDTAVYYCAAGYWNDFDWGQGTQVTVSS | low polyreactivity
14 | QVQLVESGGGLVQAGGSLRLSCAASGSIFSRNAMGWYRQAPGKERELVAAITWSGGSTYYADSVKGRFTISRDNAKNTVYLQMNSLKPEDTAVYYCNAKRSSRIKQLEYDYWGQGTQVTVSS | high polyreactivity
15 | QVQLVESGGGLVQAGGSLRLSCAASGSIFSRNAMGWYRQARGKERELVAAISWRGGSTYYADSVKGRFTISRDNAKNTGYLQMNSLKPEDTAVYYCAAVYQFIKWGDRYEYWGQGTQVTVSS | high polyreactivity
16 | QVQLVESGGGLVQAGGSLRLSCAASGSIFSRYAMGWYIQAPGKERELVAAISTGGGRTYYADSVKGRFTISRDNAKNTVYLKMNSLKPEDTAVYYCAAPQQQSWTYDGRYGYWGQGTQVTVSS | high polyreactivity
17 | QVQLVESGGGLVQAGGSLRLSCAASGSIFSRYAMGWYRQAPGKERELVAAISRRGGTTYYADSVKGRFTISRDNAKNTVYLQMNSQKPVDTAVYYCAAVFVTQSFIYDYYYWGQGTQVTVSS | high polyreactivity
18 | QVQLVESGGGLVQAGGSLRLSCAASGSIFSRYAMGWYRQAPGKERELVAAITSSGGRTYYADSVKGRFTISRDNAKNTVYLQMNSLKPEDTAVYYCAAEYYYIVTYDFGYWGQGTQVTVSS | low polyreactivity
19 | QVQLVESGGGLVQAGGSLRLSCAASGSIFSRYAMGWYRQAPGKEREVVADISQRAGSTYYADSVKGRFTISRDNAKITVYLQMNSLKPEDTAVYYCAKPEAQVGGYWGYDYWGQGTQVTVSS | high polyreactivity
20 | QVQLVESGGGLVQAGGSLRLSCAASGSIFSSNVMGWYRQAPWKERELVAAITVRGSRTYYADSVKGRFTISRDNAKNTVYLQLNSLKPEDTAVYYCNAVARVLGSDRRLQYYYWGQGTQVTVSS | high polyreactivity
21 | QVQLVESGGGLVQAGGSLRLSCAASGSIFSSYAMGWYRQAPGKERELVAAISSGDSTYYADSVKGRFTISRDNAKNTVYLQMNSLKPEDTAVYYCAAPWYAWGQGTQVTVSS | low polyreactivity
22 | QVQLVESGGGLVQAGGSLRLSCAASGSIFSSYAMGWYRQAPGKERELVAAITSGGSTYYADSVKGRFTISRDNAKNTVYLQLFSLKPEDTAVYYCAARQVRTSKLHMGYWGQGTQVTVSS | low polyreactivity

Row | Sequence | polyreactivity (PSR sort gate)
23 | QVQLVESGGGLVQAGGSLRLSCAASGSIFSSYAMGWYRQAPGKERELVAAITSGGSTYYADSVKGRFTISRDNAKNTVYLQMNSLKPEDTAVYYCAAYRSYFGYDYWGQGTQVTVSS | low polyreactivity
24 | QVQLVESGGGLVQAGGSLRLSCAASGSIFSSYAMGWYRQAPGKERELVASISWRSGSTYYADSVKGRFTISRDNAKNTVYLQMNSLKPEDTAVYYCATAYYRYYKYRFYYWGQGTQVTVSS | high polyreactivity
25 | QVQLVESGGGLVQAGGSLRLSCAASGSIFSSYAMGWYRQAPGKEREMVAAITYSGGRTYYADSVKGRFTISRDNAKNTVYLQMNSLKPEDTAVYYCNARKYVGFWSRYDYWGQGTQVTVSS | high polyreactivity
26 | QVQLVESGGGLVQAGGSLRLSCAASGSIFSSYSMGWYRQAPGKERELVAAIDGSGGSTYADSVKGRFTISRDNAKNTVYLQMNSLKPEDTAVYYCAVDSFLVYSAVRPYDYWGHGTQVTVSS | low polyreactivity
27 | QVQLVESGGGLVQAGGSLRLSCAASGSIFSTNAMGCYIQAPGKERELVAVITGIGGITYYADSVKGRFTISRDNAKNTVYVQMNSLKPEDTAVYYCAADPISEFYWGVKDRYDYWGQGTQVTVST | low polyreactivity
28 | QVQLVESGGGLVQAGGSLRLSCAASGSIFSTNAMGWYRQAPGKERELVATISGADGTNYADSVKGRFTISRDNAKNTVYLQMNSLKPEDTAVYYSNAFPWPVYRGYYWGQGTQVTVSS | low polyreactivity
29 | QVQLVESGGGLVQAGGSLRLSCAASGSIFSTNAMGWYRQAPWKERELVAGISSDDSTYADSVKGRFTISRDNAKNTVNLQMNSLKPEDTAVYNCAAEDNWYNVGYYYRGQGTQVTVSS | low polyreactivity
30 | QVQLVESGGGLVQAGGSLRLSCAASGSIFSTNGMGWYRQAPGKERELVAAISTGGRTYYADSVKGRFTISRDNAKNTVYLQMNSLKPEDTAVYYCAKRFGYRSTQILDYWGQGTQVTVSS | low polyreactivity
31 | QVQLVESGGGLVQAGGSLRLSCAASGSIFSTYAMGWYRQAPGKERELVAAISKSGGSTYYADSVKGRFTISRDNAKNTVYLQMNSLKPEDTAVYYCAATRWYGYKRWGYDYWGQGTQVTVSS | high polyreactivity
32 | QVQLVESGGGLVQAGGSLRLSCAASGSIFSTYAMGWYRQAPGKERELVAAISQGGSSTYYADSVKGRFTISRDNAKNTVYLQMNSLKPEDTAVYYCATPYSWYHRVYGYDYWGQGTQVTVSS | high polyreactivity
33 | QVQLVESGGGLVQAGGSLRLSCAASGSIFSVYAMGWYRQAPGKERELVASITSGGRTKYADSVKGRFTISRDNAKNTVYLQMNSLKQEDTAVYYCAKDGGGLLRWYTDEYDYWGQGTQVTVSS | low polyreactivity
34 | QVQLVESGGGLVQAGGSLRLSCAASGSIFSVYAMGWYRQAPGKERELVATISGSAGRTYYADSVKGRFTISRDNAKNTVYLQMNSLKPEDTAVYYCAARWYKEYYWGQRTQVTVSS | high polyreactivity
35 | QVQLVESGGGLVQAGGSLRLSCAASGSIFSVYARGSYRQAPGKERELVAGITRGGSTYADSVKGRFTISRDNAKNPVYLQMNSLKPEDTAVYYCNAQTRIVKDRLRSDYWGQGTQVTVSS | high polyreactivity
36 | QVQLVESGGGLVQAGGSLRLSCAASGSIFSWYAMGWYRQAPGKERELVATITWRGGSTYYADSVKGRFTISRDNAKNTVYLQMNSLKPEDTAVYYCAARVPDPYTSYRYPPYYYWGQGTQVTVSS | low polyreactivity
37 | QVQLVESGGGLVQAGGSLRLSCAASGSIFSYAMGWYRQAPGKERELVAAISRRGGRTYYADSVKGRFTISRDNEKYTVYLQMNSLKPEDTAVYYCAASGRNRKDGLYEYYYWGQGTQVTVSS | high polyreactivity
38 | QVQLVESGGGLVQAGGSLRLSCAASGSIFSYNAMGWYRQAPGKERELFAAITWSGGSTYYADSVKGRFTISRDNAKNTVYLQMNSLKPEDTAVYYCAAKGGYSTGRPTYTKFNYWGQGTQVTVSS | high polyreactivity
39 | QVQLVESGGGLVQAGGSLRLSCAASGSIFSYNAMGWYRQAPGKERELVAAINNGGSTYYADSVKGRFTISRDNAKNTVYLQMNSLKPEDTAVYYCNTARRHCQTQGGDYWGQGTQVTVSS | high polyreactivity
40 | QVQLVESGGGLVQAGGSLRLSCAASGSIFSYNLMGWYRQAPGKERELVAAITRSCGSTYYADSVKGRFTISRDNAKNTVYLQMNSLKQEDTAVYYCAVGWADQDPFIMDFWGQGTQVTVSS | low polyreactivity
41 | QVQLVESGGGLVQAGGSLRLSCAASGSIFSYNVMGGYRQAPGKERELVAVITGSGGSTYYADSVKGRFTISRDNAKNTVYLQMNSLKPEDTAVYYCNKDRGTIPPSGNDYWGQGTLVTVSS | low polyreactivity
42 | QVQLVESGGGLVQAGGSLRLSCAASGSIFSYYAMGWYRQAPGKERELVAAISLSTSGTHYADSVKGRFTISRDNAKNTVYLQMNSLKPEDTAVYYCAARQGYPVFLYNSRYGYWGQGTQVTVSS | low polyreactivity
43 | QVQLVESGGGLVQAGGSLRLSCAASGSIFSYYAMGWYRQAPGKERELVAAISQNGGSTYYADSVKGRFTISRDNAKNTVYLQMNSLKPEDTAVYYCNAYSVYVRGEYWGQGTQVTVSS | high polyreactivity
